# T1: TerR35-138 (Aspergillus terreus SBUG844, UniProt Q0D1P5 35-138)
# T1 sequence: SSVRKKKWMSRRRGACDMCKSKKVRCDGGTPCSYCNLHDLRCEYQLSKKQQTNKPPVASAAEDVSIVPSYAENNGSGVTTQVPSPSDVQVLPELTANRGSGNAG
# T2: TerR43-138 (Aspergillus terreus SBUG844, UniProt Q0D1P5 43-138)
# T2 sequence: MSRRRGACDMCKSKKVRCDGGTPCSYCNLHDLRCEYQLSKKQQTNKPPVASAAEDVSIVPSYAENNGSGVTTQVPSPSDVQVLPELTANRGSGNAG
# B1: BS1 (dsDNA)
# DNA 1: GAGTCGGCATTACGGCGG
# DNA 2: CCGCCGTAATGCCGACTC
# B2: BS2 (dsDNA)
# DNA 1: TTATCGGACTTTCGGATT
# DNA 2: AATCCGAAAGTCCGATAA
# B3: BS7 (dsDNA)
# DNA 1: ACTTCGGCTATCCGGTTA
# DNA 2: TAACCGGATAGCCGAAGT
# B4: BS7m (second CGG half-site mutated) (dsDNA)
# DNA 1: ACTTCGGCTATCCAATTA
# DNA 2: TAATTGGATAGCCGAAGT
# B5: BS8 (dsDNA)
# DNA 1: CGGGCGGTTAGGCGGCAT
# DNA 2: ATGCCGCCTAACCGCCCG
# B6: BS9 (dsDNA)
# DNA 1: GCTTCGGTAATTCGGTAA
# DNA 2: TTACCGAATTACCGAAGC
# B7: BS4 (dsDNA)
# DNA 1: TCTTCGGCAATACGGACT
# DNA 2: AGTCCGTATTGCCGAAGA
# B8: BS4m1 (TT before 5'-CGG to GG) (dsDNA)
# DNA 1: TGGGCGGCAATACGGACT
# DNA 2: AGTCCGTATTGCCGCCCA
# B9: BS4m2 (C directly after 5'-CGG to G) (dsDNA)
# DNA 1: TCTTCGGGAATACGGACT
# DNA 2: AGTCCGTATTCCCGAAGA
# B10: BS6 (dsDNA)
# DNA 1: CTCTCGGAAACTCGGAAA
# DNA 2: TTTCCGAGTTTCCGAGAG
# B11: BS2m1 (5'-CGG to CAA) (dsDNA)
# DNA 1: TTATCAAACTTTCGGATT
# DNA 2: AATCCGAAAGTTTGATAA
# B12: BS2m2 (3'-CGG to CAA) (dsDNA)
# DNA 1: TTATCGGACTTTCAAATT
# DNA 2: AATTTGAAAGTCCGATAA
# B13: BS3 (dsDNA)
# DNA 1: GAGACGGAAACTCGGGTT
# DNA 2: AACCCGAGTTTCCGTCTC
# B14: BS5 (dsDNA)
# DNA 1: GGGGCGGCTCCTCGGTAC
# DNA 2: GTACCGAGGAGCCGCCCC
# Experiments:
# [1] = target: T1, TerR35-138; test: SPR; molar ratio 1.12; SPR (Biacore 2000, SA-coated CM3 chip): 10 mM HEPES pH 7.4, 150 mM NaCl, 0.005% P20, 5 mM beta-mercaptoethanol, 1 uM ZnCl2, 25 C; protein 12.5-6400 nM; 1:1 model with mass transport; settings: protein: recombinant; (pET-29a; theoretical mass 11.35 kDa); label: biotin on one strand; 18 bp duplex
# [2] = target: T2, TerR43-138; test: SPR; molar ratio 1.04; SPR (Biacore 2000, SA-coated CM3 chip): 10 mM HEPES pH 7.4, 150 mM NaCl, 0.005% P20, 5 mM beta-mercaptoethanol, 1 uM ZnCl2, 25 C; protein 12.5-6400 nM; 1:1 model with mass transport; settings: protein: recombinant; (pET-29a; mass used 10218 Da); label: biotin on one strand; 18 bp duplex
# [3] = target: T1, TerR35-138; test: SPR; molar ratio 1.62; SPR (Biacore 2000, SA-coated CM3 chip): 10 mM HEPES pH 7.4, 150 mM NaCl, 0.005% P20, 5 mM beta-mercaptoethanol, 1 uM ZnCl2, 25 C; protein 12.5-6400 nM; 1:1 model with mass transport; settings: protein: recombinant; (pET-29a; theoretical mass 11.35 kDa); label: biotin on one strand; 18 bp duplex
# [4] = target: T1, TerR35-138; test: SPR; molar ratio 1.25; SPR (Biacore 2000, SA-coated CM3 chip): 10 mM HEPES pH 7.4, 150 mM NaCl, 0.005% P20, 5 mM beta-mercaptoethanol, 1 uM ZnCl2, 25 C; protein 12.5-6400 nM; 1:1 model with mass transport; settings: protein: recombinant; (pET-29a; theoretical mass 11.35 kDa); label: biotin on one strand; 18 bp duplex
# [5] = target: T2, TerR43-138; test: SPR; molar ratio 0.91; SPR (Biacore 2000, SA-coated CM3 chip): 10 mM HEPES pH 7.4, 150 mM NaCl, 0.005% P20, 5 mM beta-mercaptoethanol, 1 uM ZnCl2, 25 C; protein 12.5-6400 nM; 1:1 model with mass transport; settings: protein: recombinant; (pET-29a; mass used 10218 Da); label: biotin on one strand; 18 bp duplex
# [6] = target: T1, TerR35-138; test: SPR; molar ratio 0.92; SPR (Biacore 2000, SA-coated CM3 chip): 10 mM HEPES pH 7.4, 150 mM NaCl, 0.005% P20, 5 mM beta-mercaptoethanol, 1 uM ZnCl2, 25 C; protein 12.5-6400 nM; 1:1 model with mass transport; settings: protein: recombinant; (pET-29a; theoretical mass 11.35 kDa); label: biotin on one strand; 18 bp duplex
# [7] = target: T2, TerR43-138; test: SPR; molar ratio 1.06; SPR (Biacore 2000, SA-coated CM3 chip): 10 mM HEPES pH 7.4, 150 mM NaCl, 0.005% P20, 5 mM beta-mercaptoethanol, 1 uM ZnCl2, 25 C; protein 12.5-6400 nM; 1:1 model with mass transport; settings: protein: recombinant; (pET-29a; mass used 10218 Da); label: biotin on one strand; 18 bp duplex
# [8] = target: T1, TerR35-138; test: SPR; molar ratio 1.17; SPR (Biacore 2000, SA-coated CM3 chip): 10 mM HEPES pH 7.4, 150 mM NaCl, 0.005% P20, 5 mM beta-mercaptoethanol, 1 uM ZnCl2, 25 C; protein 12.5-6400 nM; 1:1 model with mass transport; settings: protein: recombinant; (pET-29a; theoretical mass 11.35 kDa); label: biotin on one strand; 18 bp duplex
# [9] = target: T1, TerR35-138; test: SPR; molar ratio 1.51; SPR (Biacore 2000, SA-coated CM3 chip): 10 mM HEPES pH 7.4, 150 mM NaCl, 0.005% P20, 5 mM beta-mercaptoethanol, 1 uM ZnCl2, 25 C; protein 12.5-6400 nM; 1:1 model with mass transport; settings: protein: recombinant; (pET-29a; theoretical mass 11.35 kDa); label: biotin on one strand; 18 bp duplex
# [10] = target: T2, TerR43-138; test: SPR; molar ratio 0.92; SPR (Biacore 2000, SA-coated CM3 chip): 10 mM HEPES pH 7.4, 150 mM NaCl, 0.005% P20, 5 mM beta-mercaptoethanol, 1 uM ZnCl2, 25 C; protein 12.5-6400 nM; 1:1 model with mass transport; settings: protein: recombinant; (pET-29a; mass used 10218 Da); label: biotin on one strand; 18 bp duplex
# [11] = target: T2, TerR43-138; test: SPR; molar ratio 0.88; SPR (Biacore 2000, SA-coated CM3 chip): 10 mM HEPES pH 7.4, 150 mM NaCl, 0.005% P20, 5 mM beta-mercaptoethanol, 1 uM ZnCl2, 25 C; protein 12.5-6400 nM; 1:1 model with mass transport; settings: protein: recombinant; (pET-29a; mass used 10218 Da); label: biotin on one strand; 18 bp duplex
# [12] = target: T1, TerR35-138; test: SPR; molar ratio 1.14; SPR (Biacore 2000, SA-coated CM3 chip): 10 mM HEPES pH 7.4, 150 mM NaCl, 0.005% P20, 5 mM beta-mercaptoethanol, 1 uM ZnCl2, 25 C; protein 12.5-6400 nM; 1:1 model with mass transport; settings: protein: recombinant; (pET-29a; theoretical mass 11.35 kDa); label: biotin on one strand; 18 bp duplex
# [13] = target: T2, TerR43-138; test: SPR; molar ratio 0.95; SPR (Biacore 2000, SA-coated CM3 chip): 10 mM HEPES pH 7.4, 150 mM NaCl, 0.005% P20, 5 mM beta-mercaptoethanol, 1 uM ZnCl2, 25 C; protein 12.5-6400 nM; 1:1 model with mass transport; settings: protein: recombinant; (pET-29a; mass used 10218 Da); label: biotin on one strand; 18 bp duplex
# [14] = target: T1, TerR35-138; test: SPR; molar ratio 1.38; SPR (Biacore 2000, SA-coated CM3 chip): 10 mM HEPES pH 7.4, 150 mM NaCl, 0.005% P20, 5 mM beta-mercaptoethanol, 1 uM ZnCl2, 25 C; protein 12.5-6400 nM; 1:1 model with mass transport; settings: protein: recombinant; (pET-29a; theoretical mass 11.35 kDa); label: biotin on one strand; 18 bp duplex
# [15] = target: T1, TerR35-138; test: SPR; molar ratio 1.19; SPR (Biacore 2000, SA-coated CM3 chip): 10 mM HEPES pH 7.4, 150 mM NaCl, 0.005% P20, 5 mM beta-mercaptoethanol, 1 uM ZnCl2, 25 C; protein 12.5-6400 nM; 1:1 model with mass transport; settings: protein: recombinant; (pET-29a; theoretical mass 11.35 kDa); label: biotin on one strand; 18 bp duplex
# [16] = target: T2, TerR43-138; test: SPR; molar ratio 0.85; SPR (Biacore 2000, SA-coated CM3 chip): 10 mM HEPES pH 7.4, 150 mM NaCl, 0.005% P20, 5 mM beta-mercaptoethanol, 1 uM ZnCl2, 25 C; protein 12.5-6400 nM; 1:1 model with mass transport; settings: protein: recombinant; (pET-29a; mass used 10218 Da); label: biotin on one strand; 18 bp duplex
# [17] = target: T1, TerR35-138; test: SPR; molar ratio 1.93; SPR (Biacore 2000, SA-coated CM3 chip): 10 mM HEPES pH 7.4, 150 mM NaCl, 0.005% P20, 5 mM beta-mercaptoethanol, 1 uM ZnCl2, 25 C; protein 12.5-6400 nM; 1:1 model with mass transport; settings: protein: recombinant; (pET-29a; theoretical mass 11.35 kDa); label: biotin on one strand; 18 bp duplex
# [18] = target: T1, TerR35-138; test: SPR; molar ratio 0.95; SPR (Biacore 2000, SA-coated CM3 chip): 10 mM HEPES pH 7.4, 150 mM NaCl, 0.005% P20, 5 mM beta-mercaptoethanol, 1 uM ZnCl2, 25 C; protein 12.5-6400 nM; 1:1 model with mass transport; settings: protein: recombinant; (pET-29a; theoretical mass 11.35 kDa); label: biotin on one strand; 18 bp duplex
# [19] = target: T1, TerR35-138; test: SPR; molar ratio 1.74; SPR (Biacore 2000, SA-coated CM3 chip): 10 mM HEPES pH 7.4, 150 mM NaCl, 0.005% P20, 5 mM beta-mercaptoethanol, 1 uM ZnCl2, 25 C; protein 12.5-6400 nM; 1:1 model with mass transport; settings: protein: recombinant; (pET-29a; theoretical mass 11.35 kDa); label: biotin on one strand; 18 bp duplex
# [20] = target: T1, TerR35-138; test: SPR; molar ratio 1.87; SPR (Biacore 2000, SA-coated CM3 chip): 10 mM HEPES pH 7.4, 150 mM NaCl, 0.005% P20, 5 mM beta-mercaptoethanol, 1 uM ZnCl2, 25 C; protein 12.5-6400 nM; 1:1 model with mass transport; settings: protein: recombinant; (pET-29a; theoretical mass 11.35 kDa); label: biotin on one strand; 18 bp duplex
binder,measurement,setting,value
B1,Kd,[1],527 ± 3 nM
B2,Kd,[2],3730 ± 30 nM
same,Kd,[3],536 ± 3 nM
B3,Kd,[4],26.5 ± 0.3 nM
same,Kd,[5],591 ± 2 nM
B4,Kd,[6],25.3 ± 0.2 nM
B5,Kd,[7],17200 ± 500 nM
same,Kd,[8],286 ± 2 nM
B6,Kd,[9],41 ± 0.4 nM
same,Kd,[10],820 ± 4 nM
B7,Kd,[11],1070 ± 60 nM
same,Kd,[12],65.6 ± 0.6 nM
B8,Kd,[13],9300 ± 1000 nM
same,Kd,[14],429 ± 2 nM
B9,Kd,[11],1370 ± 50 nM
same,Kd,[15],155 ± 1 nM
B10,Kd,[16],2050 ± 90 nM
same,Kd,[3],150 ± 1 nM
B11,Kd,[17],5780 ± 60 nM
B12,Kd,[18],363 ± 2 nM
B13,Kd,[19],676 ± 3 nM
B14,Kd,[20],1530 ± 60 nM
